Reference: US20240279281A1, “Peptide Inhibitors of Interleukin-23 Receptor” (Janssen Pharmaceutica NV, priority 2023, published 2024)
Starred links: 1 amine or outer side, 2 acyl side, 3 side chain; linkers in the order of their positions; H or OH if unused. Positions of bridges follow the written chain, without caps; N, C: chain ends. Non-standard residues stand in square brackets, D forms with d. No end group written: not given here. X3 = 4‑(2-(4-(2-amino-2-carboxyethyl)phenoxy)ethyl)‑4‑methylmorpholin‑4‑ium, C[N+]1(CCOc2ccc(CC(N[*:1])C(=O)[*:2])cc2)CCOCC1; X5 = 2‑amino‑3‑(3-carbamoyl-1H-pyrazol-4-yl)propanoic acid, NC(=O)c1n[nH]cc1CC(N[*:1])C(=O)[*:2]; X6 = 2‑amino‑3‑(4-carbamoyl-1H-imidazol-1-yl)propanoic acid, NC(=O)c1cn(CC(N[*:1])C(=O)[*:2])cn1; 2Nal(6-OH) = N[C@@H](Cc1ccc2cc(O)ccc2c1)C(=O)O; Trp(7-Me) = Cc1cccc2c(C[C@H](N)C(=O)O)c[nH]c12; AEF = NCCOc1ccc(C[C@H](N)C(=O)O)cc1; 3Pal = N[C@@H](Cc1cccnc1)C(=O)O; Pen = CC(C)(S)[C@H](N)C(=O)O; lipid = not defined here; Thp = NC1(C(=O)O)CCOCC1; Sar = CNCC(=O)O

T1: interleukin-23 receptor (IL-23R), Q5VWK5
T1 chain: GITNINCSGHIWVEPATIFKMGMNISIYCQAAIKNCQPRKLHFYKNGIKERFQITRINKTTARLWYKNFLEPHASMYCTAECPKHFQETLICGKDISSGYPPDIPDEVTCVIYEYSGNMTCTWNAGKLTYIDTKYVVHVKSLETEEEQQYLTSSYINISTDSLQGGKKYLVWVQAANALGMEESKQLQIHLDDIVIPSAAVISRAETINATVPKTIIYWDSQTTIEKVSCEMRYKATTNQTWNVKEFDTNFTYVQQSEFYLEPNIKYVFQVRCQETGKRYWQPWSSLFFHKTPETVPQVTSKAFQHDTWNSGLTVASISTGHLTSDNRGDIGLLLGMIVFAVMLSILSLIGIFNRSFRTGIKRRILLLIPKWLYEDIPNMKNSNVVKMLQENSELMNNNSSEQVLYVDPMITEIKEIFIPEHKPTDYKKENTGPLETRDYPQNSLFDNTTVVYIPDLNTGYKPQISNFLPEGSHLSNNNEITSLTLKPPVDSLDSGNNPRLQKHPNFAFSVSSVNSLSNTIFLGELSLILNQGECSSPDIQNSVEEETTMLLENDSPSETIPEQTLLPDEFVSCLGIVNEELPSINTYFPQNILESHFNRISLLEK


Target: T1, interleukin-23 receptor (IL-23R), Q5VWK5
Experiment: cell-based or functional assay

| PBMC pSTAT3 IC50 [nM] | IL23R Reporter Assay IC50 [nM] | Binder |
| --- | --- | --- |
| < 1 |  | K[Pen]ET[Trp(7-Me)]K(Ac)[Pen][2‑amino‑3‑(4-(2-aminoethoxy)phenyl)propanoic acid][2‑amino‑3‑(6-hydroxynaphthalen-2-yl)propanoic acid][Thp]EN[3Pal][Sar] (not fully specified (residue 1, bridges); ends and bridges not checked; also: Lys1: lipidated lysine, lipid not given here) [SEQ ID NO: 395] |
| < 1 |  | R[Pen]KT[Trp(7-Me)]K(Ac)[Pen][AEF][2Nal(6-OH)][Thp]EN[3Pal][Sar] (not fully specified (residue 3, bridges); ends and bridges not checked; also: K3: lipidated lysine) [SEQ ID NO: 425] |
|  | < 10 | K[Pen]NT[Trp(7-Me)]K(Ac)[Pen][2‑amino‑3‑(4-(2-aminoethoxy)phenyl)propanoic acid][2‑amino‑3‑(6-hydroxynaphthalen-2-yl)propanoic acid][Thp]K(Ac)N[3Pal][Sar] (not fully specified (bridges); ends and bridges not checked; also: K1: lipidated lysine, lipid not given here) [SEQ ID NO: 85] |
|  | < 10 | R[Pen]NT[Trp(7-Me)]K[Pen][2‑amino‑3‑(4-(2-aminoethoxy)phenyl)propanoic acid][2‑amino‑3‑(6-hydroxynaphthalen-2-yl)propanoic acid][Thp]EN[3Pal][Sar] (not fully specified (bridges); ends and bridges not checked; also: K6: lipidated lysine, lipid not given here) [SEQ ID NO: 84] |
| > 1 |  | R[Pen]NT[Trp(7-Me)]K(Ac)[Pen][2‑amino‑3‑(4-(2-aminoethoxy)phenyl)propanoic acid][2‑amino‑3‑(6-hydroxynaphthalen-2-yl)propanoic acid][Thp]EN[X5][Sar] (disulfide 2-7 (inferred); ends not checked) [SEQ ID NO: 440] |
| < 0.1 |  | R[Pen]NT[Trp(7-Me)]K(Ac)[Pen][N,N,N‑trimethylethanaminium][2‑amino‑3‑(6-hydroxynaphthalen-2-yl)propanoic acid][Thp]EN[3Pal][Sar] (disulfide 2-7 (inferred); not fully specified; ends not checked) [SEQ ID NO: 435] |
| < 0.1 |  | R[Pen]NT[Trp(7-Me)]K(Ac)[Pen][AEF][2Nal(6-OH)][Thp]EN[X6][Sar] (not fully specified (bridges); ends and bridges not checked) [SEQ ID NO: 419] |
| > 1 |  | R[Pen]NT[Trp(7-Me)]K(Ac)[Pen][2‑amino‑3‑(4-(2-aminoethoxy)phenyl)propanoic acid][2‑amino‑3‑(6-(4-methoxyphenyl)naphthalen-2-yl)propanoic acid][Thp]EN[Thp] (disulfide 2-7 (inferred); ends not checked) [SEQ ID NO: 438] |
| < 1 |  | K[Pen]NT[Trp(7-Me)]K(Ac)[Pen][2‑amino‑3‑(4-(2-aminoethoxy)phenyl)propanoic acid][2‑amino‑3‑(6-hydroxynaphthalen-2-yl)propanoic acid][Thp]K(Ac)N[3Pal][Sar] (not fully specified (residue 1, bridges); ends and bridges not checked; also: Lys1 lipidated (lipid not given here)) [SEQ ID NO: 427] |
| < 0.1 |  | R[Pen]ET[Trp(7-Me)]K(Ac)[Pen][AEF][2Nal(6-OH)][Thp]KN[3Pal][Sar] (not fully specified (bridges); ends and bridges not checked; also: K11: lipidated lysine) [SEQ ID NO: 420] |
| > 1 |  | R[Pen]NT[Trp(7-Me)]K(Ac)[Pen][2‑amino‑3‑(4-(2-aminoethoxy)phenyl)propanoic acid][2‑amino‑3‑(5-bromonaphthalen-2-yl)propanoic acid][Thp]EN[Thp] (disulfide 2-7 (inferred); ends not checked) [SEQ ID NO: 443] |
|  | < 10 | [Pen]NT[Trp(7-Me)]K[Pen][2‑amino‑3‑(4-(2-aminoethoxy)phenyl)propanoic acid][2‑amino‑3‑(6-hydroxynaphthalen-2-yl)propanoic acid][Thp]K(Ac)N[3Pal][Sar] (not fully specified (bridges); ends and bridges not checked; also: K5: lipidated lysine, lipid not given here) [SEQ ID NO: 81] |
|  | < 10 | [Pen]NT[Trp(7-Me)]K(Ac)[Pen][5‑(4-(2-amino-2-carboxyethyl)phenoxy)‑N,N,N‑trimethylpentan‑1‑aminium][2Nal(6-OH)][Thp]EN[3Pal][Sar] (not fully specified (bridges); ends and bridges not checked) [SEQ ID NO: 75] |
|  | < 10 | R[Pen]NTWK(Ac)[Pen][X3][2Nal(6-OH)][Thp]EN[3Pal][Sar] (not fully specified (bridges); ends and bridges not checked) [SEQ ID NO: 73] |
|  | < 10 | [Pen]NT[Trp(7-Me)]K(Ac)[Pen][2‑amino‑3‑(4-(2-aminoethoxy)phenyl)propanoic acid][2‑amino‑3‑(6-hydroxynaphthalen-2-yl)propanoic acid][Thp]KN[3Pal][Sar] (not fully specified (bridges); ends and bridges not checked; also: K10: lipidated lysine, lipid not given here) [SEQ ID NO: 80] |
| < 1 |  | R[Pen]NT[Trp(7-Me)]K(Ac)[Pen][N,N,N‑trimethylethanaminium][2‑amino‑3‑(6-hydroxynaphthalen-2-yl)propanoic acid][Thp]EN[3Pal][Sar] (disulfide 2-7 (inferred); not fully specified; ends not checked) [SEQ ID NO: 436] |
| > 1 |  | R[Pen]NT[Trp(7-Me)]K(Ac)[Pen][2‑amino‑3‑(4-(2-aminoethoxy)phenyl)propanoic acid][2‑amino‑3‑(6-(3-(trifluoromethyl)-1H-pyrazol-4-yl)naphthalen-2-yl)propanoic acid][Thp]EN[Thp] (not fully specified (bridges); ends and bridges not checked) [SEQ ID NO: 434] |
| < 1 |  | R[Pen]ET[Trp(7-Me)]K(Ac)[Pen][AEF][2Nal(6-OH)][Thp]K(Ac)N[3Pal][Sar] (not fully specified (bridges); ends and bridges not checked) [SEQ ID NO: 421] |
| < 1 |  | [Pen]NT[Trp(7-Me)]K(Ac)[Pen][2‑amino‑3‑(4-(2-aminoethoxy)phenyl)propanoic acid][2‑amino‑3‑(6-hydroxynaphthalen-2-yl)propanoic acid][Thp]K(Ac)N[3Pal][Sar]K(lipid) (disulfide 1-6 (inferred); ends not checked; also: K14: lipidated lysine) [SEQ ID NO: 277] |
| < 1 |  | K[Pen]ET[Trp(7-Me)]K(Ac)[Pen][AEF][2Nal(6-OH)][Thp]K(Ac)N[3Pal][Sar] (not fully specified (bridges); ends and bridges not checked; also: lipidated Lys1, lipid not given here) [SEQ ID NO: 423] |
| > 1 |  | R[Pen]NT[Trp(7-Me)]K(Ac)[Pen][2‑amino‑3‑(4-(2-aminoethoxy)phenyl)propanoic acid][3‑(6-(1H-pyrazol-4-yl)naphthalen-2-yl)‑2‑aminopropanoic acid][Thp]EN[Thp] (not fully specified (bridges); ends and bridges not checked) [SEQ ID NO: 433] |
